Source: US20220340657A1

How the values were obtained:
[1] = molecular target: cyno-LAG3-hFc (cynomolgus monkey); assay: Biacore
[2] = molecular target: cyno-LAG3-hFc (cynomolgus monkey); assay: ELISA

Kd [1]: 836 nM | EC50 [2]: 35.3 nM
Substance: positive control antibody Ref (BMS-986016)
